In paper PMC9114768 (Frontiers in Immunology, 2022):

Experiments:
Details in all cases: both partners purified
S1-RBD peptide 13 = target: T1, S1-RBD peptide 13 (SARS-CoV-2 (YP_009724390)); assay: ELISA
T1 construct: source: synthetic peptide (Leadgene Biomedical)
T1 chain: PFERDISTEIYQAGS

[1] = target: His-tagged SARS-CoV-2 S1-RBD recombinant protein, wild type (SARS-CoV-2 (YP_009724390), UniProt P0DTC2); assay: SPR; Biacore T200; […]; mAb 256 nM to 8 nM; 30 μL/min, 120 s association, 360 s dissociation; 25°C; 1:1 binding model
[2] = target: T2, C-terminal Fc-tagged human ACE2 recombinant protein (Homo sapiens, UniProt Q9BYF1); assay: SPR; Biacore T200; […]; mAb 1024 nM to 8 nM; 30 μL/min, 120 s association, 360 s dissociation; 25°C; 1:1 binding model
T2 construct: also called ACE2-hFc; recombinant ACE2-hFc; source: CHO cells, purified (Leadgene Biomedical Cat. No. 63333); not shown: Fc (human, hFc), C-terminal, kept
T2 sequence (Q9BYF1 18-740): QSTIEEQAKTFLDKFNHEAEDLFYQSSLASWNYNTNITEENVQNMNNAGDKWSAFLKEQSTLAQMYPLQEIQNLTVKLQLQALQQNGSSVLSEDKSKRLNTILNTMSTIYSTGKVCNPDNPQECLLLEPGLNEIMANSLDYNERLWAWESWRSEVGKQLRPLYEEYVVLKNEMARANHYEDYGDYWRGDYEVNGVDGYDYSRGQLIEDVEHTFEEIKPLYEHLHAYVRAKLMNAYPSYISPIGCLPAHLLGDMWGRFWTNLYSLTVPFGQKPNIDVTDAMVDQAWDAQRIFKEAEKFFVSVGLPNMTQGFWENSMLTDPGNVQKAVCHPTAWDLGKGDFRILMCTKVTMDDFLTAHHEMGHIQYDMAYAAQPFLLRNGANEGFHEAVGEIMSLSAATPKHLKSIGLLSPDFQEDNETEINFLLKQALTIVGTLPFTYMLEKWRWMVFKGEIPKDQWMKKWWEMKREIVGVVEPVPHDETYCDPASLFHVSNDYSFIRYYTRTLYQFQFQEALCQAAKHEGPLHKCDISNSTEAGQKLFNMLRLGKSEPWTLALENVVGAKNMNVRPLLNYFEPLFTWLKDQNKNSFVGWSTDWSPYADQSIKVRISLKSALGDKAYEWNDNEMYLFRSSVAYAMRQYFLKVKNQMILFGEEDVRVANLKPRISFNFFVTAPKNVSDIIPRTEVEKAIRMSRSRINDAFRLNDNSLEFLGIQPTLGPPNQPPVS

B1: monoclonal antibody 127 (antibody, V domains shown)
VH: QVQLQQPGAELVKPGASVKLSCKASGYTFTSYWMHWVKQRPGQGLEWIGEINPSNGRKNYNEKFKSKATLTVDKSSSTAYMQLSSLTSEDSAVYYCVRGDYGSSYYWYFDVWGAGTTVTVSS
VL: not shown
binding result (S1-RBD peptide 13): binds
Kd [1]: 2.44 nM
Kd [2]: 16.1 nM

B2: monoclonal antibody 150 (antibody, V domains shown)
VH: QVQLQQPGAELVKPGASVKLSCKASGYTFTSYWMHWVKQRPGQGLEWIGEINPSNGRKNYNEKFKSKATLTVDKSSSTAYMQLSSLTSEDSAVYYCVRGDYGSSYYWYFDVWGAGTTVTVSS
VL: not shown
notes: also called mAb 150
binding result (S1-RBD peptide 13): binds
Kd [1]: 3.87 nM
Kd [2]: 2770 nM
